Laboratory results published in the supplement of paper PMC10567573.

B1: LOXL2 (parent)
chain: FSPDGPSRFRKAYKPEQPLVRLRG

Variants of: B1
Assay: protein stability index of a GFP-peptide fusion (GPS, HEK-293T) (PSI 1-6); higher = more stable
Conditions: c terminus: a fixed tail appended
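Further: lentivirally expressed fusions sorted by FACS into six bins by GFP to DsRed ratio, PSI derived from sequencing read proportions per bin multiplied by bin number.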

Protein stability index: each site, then its substitutions
R23: P 1.85; Q 2.13; S 1.82; T 1.33; V 1.98; W 2.25; Y 1.2
G24: A 2.71; C 2.27; D 1.8; E 1.91; F 1.73; H 1.52; I 1.44; K 1.69; L 3.27; M 2.72; N 1.91; P 1.82; Q 2.72; R 2.79; S 1.41; T 1.38; V 2.73; W 2.07; Y 1.85
